Test results taken from patent US20260022165A1 (US Dept. of Health and Human Services, published 2026).
Positions count from the first letter of the chain named.

B1: Ab1 Fab (His-tagged rabbit/human chimeric anti-C3d Fab) (Fab, V domains shown)
VH: QSVEESRGRLVTPGTPLTLTCTVSGIDLSSSAITWVRQAPGKGLEWIGMISTDGATYYANWAKGRFTFSKTSTTADLKITSPTTEDTATYFCARGLTNFSIWGPGTLVTVSS
VL: QPVLTQSPSASAALGASAKLTCTLSSAHKTYTIAWYQQQPGESPRYLMLLKSDGSYTRGPGVPDRFSGSSSGADRYLIIPSVQADDEAGYYCGADYNGGYVFGGGTQLTVTG
notes: Fab from the phage display vector pC3C with rabbit Vλ/human Cλ/rabbit VH, His-tagged; also called Ab1 (λ)
B2: Ab2 Fab (His-tagged rabbit/human chimeric anti-C3d Fab) (Fab, V domains shown)
VH: QSVEESGGRLVTPGTPLTLTCTVSGFSLSSYAMTWVRQAPGKGLEWIGVIGTSGMRYYANWAKGRFTISKTSTTVDLKITSPTTEDTATYFCARANFYVGNDESTDAFDPWGPGTLVTVSS
VL: ALVMTQTPPSLSASVGETVRIRCLASEDIYNTISWYQQKPGKPPTLLIYGASNLKSGVPPRFSGSGSGTDYTLTIGGVQSEDAATYYCLGGYSYSSTGLTFGAGTKVEIK
notes: Fab with rabbit Vκ/human Cκ/rabbit VH, His-tagged; also called Ab2 (κ)
B3: Ab3 Fab (His-tagged rabbit/human chimeric anti-C3d Fab) (Fab, V domains shown)
VH: QKQLVESGGRLVTPGGSLTLTCTISGIDLNTYGMTWVRQAPGKGLEYIGIIVSSGNTYYANWAQGRFTISKTSTTVDLKMTSLTASDTATYFCARGLGRAYSSGYGMDGWGPGTLVTVSS
VL: DPVLTQTPSSTSAAVGGTVTIKCQASQNIYTSLAWYQQKPGQPPKLLIYGASNLASGVPSRFKGSRSGTEYTLTISGVEREDAATYYCLGSYTQIDTTFGGGTKLEIK
notes: Fab with rabbit Vκ/human Cκ/rabbit VH, His-tagged; also called Ab3 (κ)
B4: Ab5 Fab (His-tagged rabbit/human chimeric anti-C3d Fab) (Fab, V domains shown)
VH: QSLEESGGRLVTPGTPLTLTCTVSGFSLSTYTLGWVRQAPGKGLEYIGWIDSSGSAYYASWAKGRFTISKASSTTVDLKMAGLTTEDTATYFCASGNTGGDPLYYGMDPWGPGTLVTVSS
VL: DPVLTQTPSSTSAAVGGTVTIKCQASQNIGRWLAWYQQKPGQPPKLLIYRASDLASGVPSRFKGSGSGTQFTLTISGVQREDAATYYCLGSYSSSDSAFGGGTEVVVK
notes: Fab with rabbit Vκ/human Cκ/rabbit VH, His-tagged; also called Ab5 (κ)
B5: Ab4 Fab (His-tagged rabbit/human chimeric anti-C3d Fab) (Fab, V domains shown)
VH: B4 VH with T30R, L33M, G34A, A56T, A71T, A81T, G82S, T98D
VL: DGVMTQTPSSTSAAVGGTVTIKCQASQSIRSWLSWYQQKPGQPPKLLIYEASKLASGVPSRFKGSRSGTEYTLAISGVQREDAATYYCLGSIASDDTAFGAGTNVEIK
notes: Fab with rabbit Vκ/human Cκ/rabbit VH, His-tagged; also called Ab4 (κ)

The binders below were run against T1, human complement protein C3d (human, UniProt P01024 1002-1303) (assay: flow cytometry; His-tagged Fab on zymosan particles opsonized with human serum (C3b/iC3b/C3d); detection AF488 mouse anti-His mAb).
T1 construct: domain: C3d; the 30 min deposits on zymosan are a mixture of C3b/iC3b/C3d that the text calls C3d; also called hC3d; human C3d
Procedure: (§2) C3-opsonized zymosan particles (1e6) were incubated with 100 μL of 1 ug/mL His-tagged Fabs in a 96-well V-bottom plate at 37° C. for 1 h. After three washes with PBST (0.05% v/v Tween 20 in PBS), 100 μL of mouse anti-His tag mAb conjugated to horse radish peroxidase (HRP) (R&D Systems, Minneapolis, MN) at 1:1000 dilution in 1% (w/v) BSA/DPBS was added to detect bound Fabs using 2,2′-azino-bis (3-ethylbenzthiazoline)-6-sulfonic acid (Roche/Milipore Sigma, St. Louis, MO) as substrate. The absorbance was measured at 405 nm using a SpectraMax M5 microplate reader and SoftMax Pro software (Molecular Devices, LLC, San Jose, CA). To test for the potential of C3 in NHS to block binding of the mAbs to C3-fragment opsonized zymosan, serial dilutions of NHS were premixed with the opsonized zymosan particles prior to addition of his-tagged Fabs and following the procedure described above.
The binding of rabbit antibodies (Fabs) was detected by flow cytometry following the same procedure described above except using a mouse anti-His tag mAb conjugated to AF488 (Qiagen, Valencia, CA).
B1: binds.

These binders were tested against T2, hFc-mC3d fusion protein (human; mouse, UniProt P01027 1002-1303, limits assumed) (assay: SPR (Biacore X100), Fab over captured hFc-mC3d).
T2 construct: domain: C3d; not shown: human IgG Fc (hFc), captured by an anti-human IgG CH2 mAb
T2 sequence (P01027 1002-1303 limits assumed): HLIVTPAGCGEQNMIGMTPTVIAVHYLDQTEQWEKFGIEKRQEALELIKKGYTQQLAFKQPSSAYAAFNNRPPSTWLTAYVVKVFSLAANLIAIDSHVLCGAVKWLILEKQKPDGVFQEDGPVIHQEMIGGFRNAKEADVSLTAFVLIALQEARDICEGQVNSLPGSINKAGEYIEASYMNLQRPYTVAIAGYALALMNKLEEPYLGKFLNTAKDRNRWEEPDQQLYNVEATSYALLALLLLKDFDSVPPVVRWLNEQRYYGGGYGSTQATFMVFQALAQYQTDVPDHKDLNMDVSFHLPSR
Procedure: (§1) Kinetic and thermodynamic parameters characterizing the binding of purified Fabs to hC3d or mC3d was performed by surface plasmon resonance (SPR) in a Biacore X100 instrument (GE Healthcare). Using mouse anti-human IgG CH2 mAb immobilized on a CM5 sensor chip, hFc-hC3d or hFc-mC3d fusion proteins were captured at a density <400 RU. Each sensor chip included an empty flow cell for instantaneous background subtraction. All binding assays used 1×HBS-EP+ running buffer (10 mM HEPES, 150 mM NaCl, 3 mM EDTA (pH 7.4), and 0.05% (v/v) Surfactant P20) at a flow rate of 30 μL/min. […] Calculation of association (kₒₙ) and dissociation (koff) rate constants were based on a 1:1 Langmuir binding model. The equilibrium dissociation constant (KD) was obtained by the formula KD=koff/kₒₙ.
With B2 the Kd was 9.04 nM, the koff was 0.00174 s⁻¹ and the kon was 193000 M⁻¹ s⁻¹.
Binder B3 has a Kd of 97.6 nM, a koff of 0.0227 s⁻¹ and a kon of 232000 M⁻¹ s⁻¹.
In the case of B4, the Kd is reported as 22.9 nM, the koff is reported as 0.00568 s⁻¹ and the kon is reported as 248000 M⁻¹ s⁻¹.
In the case of B5, the Kd is reported as 132 nM, the koff is reported as 0.00801 s⁻¹ and the kon is reported as 60600 M⁻¹ s⁻¹.

Each binder was assayed against T3, full length human C3 present in plasma (human, UniProt P01024 23-1663) (assay: ELISA, competition; His-tagged Fab (1 ug/mL) on zymosan opsonized with human C3 fragments in the presence of normal human serum (printed PNHCS) at 1/10, 1/50, 1/250 as source of full-length C3; normalized to media without serum).
T3 construct: mature; Not purified: it stood in the assay as dilutions of normal human serum; also called full-length, soluble C3; C3 in NHS
Procedure: Zymosan particles opsonized with human C3 fragments were suspended in media with indicated dilutions of NHS (1/10, 1/50 and 1/250) prior to addition of His-tagged anti-C3d Fab antibodies at 1 μg/mL. Mouse anti-His mAb conjugated with HRP was used to determine the binding signal of each Fab by ELISA. Data is normalized to media control containing no NHS.
as §2
B1: no binding (tested: serum dilution 1/10).

Each binder was assayed against T4, hFc-hC3d fusion protein (human, UniProt P01024 1002-1303, limits assumed) (assay: SPR (Biacore X100), Fab over captured hFc-hC3d).
T4 construct: domain: C3d; also called immobilized hC3d; not shown: human IgG Fc (hFc), captured by an anti-human IgG CH2 / Fcγ mAb
Procedure: as §1
For B2, the Kd was 3.35 nM, the koff was 0.00054 s⁻¹ and the kon was 162000 M⁻¹ s⁻¹.
B3 showed a Kd of 13.3 nM, a koff of 0.00126 s⁻¹ and a kon of 94600 M⁻¹ s⁻¹.
With B4 the Kd was 0.99 nM, the koff was 0.00014 s⁻¹ and the kon was 141000 M⁻¹ s⁻¹.
B5 showed a Kd of 3.1 nM, a koff of 0.00028 s⁻¹ and a kon of 90900 M⁻¹ s⁻¹.
